Laboratory results published in IntAct's records for PubMed 12813456.

B1: Protein E7 (Human papillomavirus type 16), P03129 (parent)
chain: MHGDTPTLHEYMLDLQPETTDLYCYEQLNDSSEEEDEIDGPAGQAEPDRAHYNIVTFCCKCDSTLRLCVQSTHVDIRTLEDLLMGTLGIVCPICSQKP

Variants of: B1
Details: with kat2b_human KAT2B

Variant	effect of a mutation on the interaction
L67A	decreasing interaction strength
